The source of these data is article PMC6996891.

The target in the experiment is attachment invasion locus (Ail) protein, wild type (Yersinia pestis). The experiment can be described thus: native gel or EMSA. (In general: A gel shift assay detects complexes by their altered migration in electrophoresis.)

As for “attachment invasion locus (Ail) protein, wild type (natural protein)”, the percent oligomers is 20%.
